Experimental findings from doi:10.1101/311027 (bioRxiv, 2018) are described below.

One experiment has as its target T1, Spc98 (S. cerevisiae, UniProt P53540 1-846).
T1 sequence: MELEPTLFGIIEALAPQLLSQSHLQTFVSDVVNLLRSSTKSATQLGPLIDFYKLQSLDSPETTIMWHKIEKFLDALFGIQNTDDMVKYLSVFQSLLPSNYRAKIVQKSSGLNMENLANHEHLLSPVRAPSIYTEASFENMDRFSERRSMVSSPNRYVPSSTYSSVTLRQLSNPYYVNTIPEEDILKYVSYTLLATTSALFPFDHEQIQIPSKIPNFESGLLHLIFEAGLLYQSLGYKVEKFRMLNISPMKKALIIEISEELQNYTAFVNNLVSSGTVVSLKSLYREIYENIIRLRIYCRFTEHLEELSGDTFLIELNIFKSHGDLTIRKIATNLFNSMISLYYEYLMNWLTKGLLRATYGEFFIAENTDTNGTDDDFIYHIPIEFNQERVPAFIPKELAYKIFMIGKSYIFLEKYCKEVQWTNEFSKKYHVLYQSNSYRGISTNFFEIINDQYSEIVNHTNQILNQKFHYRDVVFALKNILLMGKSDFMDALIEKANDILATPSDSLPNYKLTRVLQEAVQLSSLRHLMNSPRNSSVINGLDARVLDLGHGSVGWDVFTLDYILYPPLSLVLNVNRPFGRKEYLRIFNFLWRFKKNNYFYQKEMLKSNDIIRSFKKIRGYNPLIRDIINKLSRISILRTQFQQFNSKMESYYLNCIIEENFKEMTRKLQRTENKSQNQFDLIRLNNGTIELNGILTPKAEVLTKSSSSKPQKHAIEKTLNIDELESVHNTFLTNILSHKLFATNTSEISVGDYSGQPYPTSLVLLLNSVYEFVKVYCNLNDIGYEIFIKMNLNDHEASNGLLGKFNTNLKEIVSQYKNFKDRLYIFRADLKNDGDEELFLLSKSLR
Kind of experiment: cross-linking.

For a further experiment, the target named is T2, Spc97 (S. cerevisiae, UniProt P38863 1-823).
T2 sequence: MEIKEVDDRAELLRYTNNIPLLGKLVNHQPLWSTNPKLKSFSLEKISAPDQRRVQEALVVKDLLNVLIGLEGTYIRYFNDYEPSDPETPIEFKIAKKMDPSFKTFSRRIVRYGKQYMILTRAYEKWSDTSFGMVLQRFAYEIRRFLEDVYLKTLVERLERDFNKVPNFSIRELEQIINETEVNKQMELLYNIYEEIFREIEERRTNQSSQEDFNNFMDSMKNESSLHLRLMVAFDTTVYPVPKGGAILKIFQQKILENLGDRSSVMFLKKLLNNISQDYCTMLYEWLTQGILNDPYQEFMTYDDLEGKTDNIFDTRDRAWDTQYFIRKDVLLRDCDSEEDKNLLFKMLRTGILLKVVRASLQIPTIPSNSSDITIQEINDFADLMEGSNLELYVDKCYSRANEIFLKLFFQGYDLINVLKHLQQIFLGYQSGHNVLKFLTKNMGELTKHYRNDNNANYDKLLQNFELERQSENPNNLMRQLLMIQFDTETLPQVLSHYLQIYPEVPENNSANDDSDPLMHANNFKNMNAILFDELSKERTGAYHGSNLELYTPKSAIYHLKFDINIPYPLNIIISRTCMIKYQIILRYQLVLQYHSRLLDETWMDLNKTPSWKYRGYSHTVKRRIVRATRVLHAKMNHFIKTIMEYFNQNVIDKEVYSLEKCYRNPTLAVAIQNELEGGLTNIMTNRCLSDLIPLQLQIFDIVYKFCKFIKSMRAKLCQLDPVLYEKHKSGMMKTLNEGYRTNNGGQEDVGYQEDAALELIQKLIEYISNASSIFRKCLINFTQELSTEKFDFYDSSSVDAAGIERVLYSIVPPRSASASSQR
Kind of experiment: cross-linking.

B1: Spc110^1-401-GST (domain or fragment, S. cerevisiae, UniProt P32380 1-401, looked up)
chain: MDEASHLPNGSLKNMEFTPVGFIKSKRNTTQTQVVSPTKVPNANNGDENEGPVKKRQRRSIDDTIDSTRLFSEASQFDDSFPEIKANIPPSPRSGNVDKSRKRNLIDDLKKDVPMSQPLKEQEVREHQMKKERFDRALESKLLGKRHITYANSDISNKELYINEIKSLKHEIKELRKEKNDTLNNYDTLEEETDDLKNRLQALEKELDAKNKIVNSRKVDDHSGCIEEREQMERKLAELERKLKTVKDQVLELENNSDVQSLKLRSKEDELKNLMNELNELKSNAEEKDTQLEFKKNELRKRTNELNELKIKSDEMDLQLKQKQNESKRLKDELNELETKFSENGSQSSAKENELKMLKNKIAELEEEISTKNSQLIAKEGKLASLMAQLTQLESKLNQRD
B1: the binding result in the experiment with Spc98 and with Spc97 was “binds” in each case.
